Experimental findings from article PMC6529640, “Bacterioferritin of Magnetospirillum gryphiswaldense Is a Heterotetraeicosameric Complex Composed of Functionally Distinct Subunits but Is Not Involved in Magnetite Biomineralization” (mBio, 2019) are described below.

The series concerns the molecule itself. As to the kind of experiment: native gel or EMSA; BN-PAGE of purified proteins on polyacrylamide gradient gels, run at 4°C, Coomassie stained; Bfr2 and Bfr12 ~22 μM, Bfr1 ~30 μM in 50 mM Tris-HCl, 50 mM NaCl, pH 8.0, or Bfr12 dialysed against 50 mM imidazole-HCl, 50 mM NaCl, pH 7; for Bfr12 also a second dimension of SDS-PAGE (2D-BN/SDS-PAGE). On the technique in general: In EMSA bound probe runs differently from free probe, usually more slowly.

B1: Bfr1 of MSR-1 expressed alone from pET-51b-Bfr1 (natural protein, Magnetospirillum gryphiswaldense MSR-1, UniProt A0ACM8UIY5 1-159, looked up)
chain: MRGSPKVISVLNGLLTGELTAADQYFVHARMLENWGFKVLYERIEHERHDELDHAGLLINRILFLEGVPDVASRAALNIGSDVPKMMANDLAYELQVVDELKAAIALCESERDYDTRRILVHLLEETEQDHVRWLEVQVGLIDKLGLKNYLQSAAGEIA
notes: bacterioferritin subunit Bfr1, Magnetospirillum gryphiswaldense MSR-1, locus MSR1_27050; expressed without Bfr2
On to B1, for which the “stoichiometry N” value was 3.

By stoichiometry N is commonly meant a count of units in the complex or per binding partner.
